Source: patent US20250179176A1, “ANTI-TIGIT ANTIBODIES AND USES OF THE SAME” (ARCUS BIOSCIENCES, INC., priority 2022, published 2025)

Assay: Clinical safety of domvanalimab, 99 participants (AB154CSP0001 and ARC-7): TEAEs, related AEs, SAEs
Type: in vivo, human
Details: for Any TEAEs / TEAE Diarrhoea / TEAE Fatigue / TEAE Nausea / TEAE Pruritus: Table 15

B1: domvanalimab: anti-TIGIT antibody with engineered IgG1 Fc, reduced FcγR binding; heavy chain SEQ ID NO: 12, light chain SEQ ID NO: 13 (antibody)
heavy: EVQLVESGGGLVQPGGSLRLSCAASGFTFSNFGMHWVRQAPGKGLEWVAFISSGSSSIYYADTVKGRFTISRDNAKNSLYLQMNSLRAEDTAVYYCARMRLDYYAMDYWGQGTMVTVSSASTKGPSVFPLAPSSKSTSGGTAALGCLVKDYFPEPVTVSWNSGALTSGVHTFPAVLQSSGLYSLSSVVTVPSSSLGTQTYICNVNHKPSNTKVDKKVEPKSCDKTHTCPPCPAPEAAGGPSVFLFPPKPKDTLMISRTPEVTCWVDVSHEDPEVKFNWYVDGVEVHNAKTKPREEQYNSTYRWSVLTVLHQDWLNGKEYKCKVSNKALPAPIEKTISKAKGQPREPQVYTLPPSRDELTKNQVSLTCLVKGFYPSDIAVEWESNGQPENNYKTTPPVLDSDGSFFLYSKLTVDKSRWQQGNVFSCSVMHEALHNHYTQKSLSLSPGK
light: DIQMTQSPSSLSASVGDRVTITCRASKSISKYLAWYQQKPGKAPKLLIYSGSTLQSGVPSRFSGSGSGTDFTLTISSLQPEDFATYYCQQHNEYPWTFGGGTKVEIKRTVAAPSVFIFPPSDEQLKSGTASWCLLNNFYPREAKVQWKVDNALQSGNSQESVTEQDSKDSTYSLSSTLTLSKADYEKHKVYACEVTHQGLSSPVTKSFNRGEC
99 participants
  SAE small bowel obstruction, frequency: 4.0%
AB154CSP0001 (N = 62)
  Domvanalimab-related AE: Abdominal distension: 1 ( 1.6%)
  Domvanalimab-related AE: Abdominal pain: 1 ( 1.6%)
  Domvanalimab-related AE: Anaemia: 1 ( 1.6%)
  Domvanalimab-related AE: Any AEs: 32 (51.6%)
  Domvanalimab-related AE: Arthralgia: 1 (1.6%)
  Domvanalimab-related AE: Arthritis: 1 ( 1.6%)
  Domvanalimab-related AE: Aspartate aminotransferase increased: 1 ( 1.6%)
  Domvanalimab-related AE: Back pain: 1 ( 1.6%)
  Domvanalimab-related AE: Constipation: 1 ( 1.6%)
  Domvanalimab-related AE: Decreased appetite: 1 (1.6%)
  Domvanalimab-related AE: Diarrhoea: 3 (4.8%)
  Domvanalimab-related AE: Fatigue: 4 (6.5%)
  Domvanalimab-related AE: Flank pain: 1 ( 1.6%)
  Domvanalimab-related AE: Headache: 3 (4.8%)
  Domvanalimab-related AE: Hot flush: 1 ( 1.6%)
  Domvanalimab-related AE: Hyperglycaemia: 1 ( 1.6%)
  Domvanalimab-related AE: Hyperkalaemia: 1 ( 1.6%)
  Domvanalimab-related AE: Hyperthyroidism: 2 (3.2%)
  Domvanalimab-related AE: Hypokalaemia: 1 ( 1.6%)
  Domvanalimab-related AE: Hypothyroidism: 4 (6.5%)
  Domvanalimab-related AE: Immune-mediated hepatitis: 2 ( 3.2%)
  Domvanalimab-related AE: Influenza like illness: 1 ( 1.6%)
  Domvanalimab-related AE: Infusion related reaction: 1 ( 1.6%)
  Domvanalimab-related AE: Liver function test increased: 1 ( 1.6%)
  Domvanalimab-related AE: Lymphopenia: 1 ( 1.6%)
  Domvanalimab-related AE: Muscle spasms: 1 ( 1.6%)
  Domvanalimab-related AE: Musculoskeletal chest pain: 1 ( 1.6%)
  Domvanalimab-related AE: Nail disorder: 1 ( 1.6%)
  Domvanalimab-related AE: Nasal mucosal disorder: 1 ( 1.6%)
  Domvanalimab-related AE: Nausea: 5 (8.1%)
  Domvanalimab-related AE: Oral pain: 1 ( 1.6%)
  Domvanalimab-related AE: Pain: 2 ( 3.2%)
  Domvanalimab-related AE: Peripheral sensory neuropathy: 1 ( 1.6%)
  Domvanalimab-related AE: Pneumonitis: 1 ( 1.6%)
  Domvanalimab-related AE: Pruritus: 5 (8.1%)
  Domvanalimab-related AE: Pruritus generalised: 1 ( 1.6%)
  Domvanalimab-related AE: Pulmonary pain: 1 ( 1.6%)
  Domvanalimab-related AE: Pyrexia: 3 (4.8%)
  Domvanalimab-related AE: Rash: 1 (1.6%)
  Domvanalimab-related AE: Rash maculo-papular: 3 (4.8%)
  Domvanalimab-related AE: Rash pruritic: 1 ( 1.6%)
  Domvanalimab-related AE: Transaminases increased: 1 ( 1.6%)
  Domvanalimab-related AE: Tumour flare: 3 (4.8%)
  Domvanalimab-related AE: Tumour pain: 1 ( 1.6%)
ARC-7 (N = 37)
  Domvanalimab-related AE: Adrenal insufficiency: 1 ( 2.7%)
  Domvanalimab-related AE: Any AEs: 18 (48.6%)
  Domvanalimab-related AE: Arthralgia: 3 (8.1%)
  Domvanalimab-related AE: Asthenia: 1 ( 2.7%)
  Domvanalimab-related AE: Back pain: 1 ( 2.7%)
  Domvanalimab-related AE: Constipation: 1 ( 2.7%)
  Domvanalimab-related AE: Cough: 1 ( 2.7%)
  Domvanalimab-related AE: Decreased appetite: 2 (5.4%)
  Domvanalimab-related AE: Delirium: 1 ( 2.7%)
  Domvanalimab-related AE: Diarrhoea: 2 (5.4%)
  Domvanalimab-related AE: Dry eye: 1 ( 2.7%)
  Domvanalimab-related AE: Dry mouth: 1 ( 2.7%)
  Domvanalimab-related AE: Dyspnoea exertional: 1 ( 2.7%)
  Domvanalimab-related AE: Fatigue: 2 (5.4%)
  Domvanalimab-related AE: Generalised oedema: 1 ( 2.7%)
  Domvanalimab-related AE: Headache: 1 (2.7%)
  Domvanalimab-related AE: Hyperthyroidism: 1 (2.7%)
  Domvanalimab-related AE: Infusion related reaction: 1 ( 2.7%)
  Domvanalimab-related AE: Infusion site pain: 1 ( 2.7%)
  Domvanalimab-related AE: Malaise: 2 ( 5.4%)
  Domvanalimab-related AE: Myalgia: 1 ( 2.7%)
  Domvanalimab-related AE: Nausea: 1 (2.7%)
  Domvanalimab-related AE: Pancreatitis: 1 ( 2.7%)
  Domvanalimab-related AE: Paraesthesia: 1 ( 2.7%)
  Domvanalimab-related AE: Pneumonitis: 1 ( 2.7%)
  Domvanalimab-related AE: Pruritus: 4 (10.8%)
  Domvanalimab-related AE: Pyrexia: 2 (5.4%)
  Domvanalimab-related AE: Rash: 3 (8.1%)
  Domvanalimab-related AE: Rash maculo-papular: 3 (8.1%)
  Domvanalimab-related AE: Rhinorrhoea: 1 ( 2.7%)
  Domvanalimab-related AE: Vomiting: 1 ( 2.7%)
ARC-7 (n = 37)
  Any TEAEs: 31 (83.8%)
  TEAE Diarrhoea: 5 (13.5%)
  TEAE Fatigue: 3 (8.1%)
  TEAE Nausea: 4 (10.8%)
  TEAE Pruritus: 4 (10.8%)
Total (n = 99)
  Any TEAEs: 84 (84.8%)
  TEAE Diarrhoea: 10 (10.1%)
  TEAE Fatigue: 12 (12.1%)
  TEAE Nausea: 13 (13.1%)
  TEAE Pruritus: 10 (10.1%)
N = 62
  Any TEAEs: 53 (85.5%)
  TEAE Diarrhoea: 5 (8.1%)
  TEAE Fatigue: 9 (14.5%)
  TEAE Nausea: 9 (14.5%)
  TEAE Pruritus: 6 (9.7%)
Total (N = 99)
  Domvanalimab-related AE: Abdominal distension: 1 ( 1.0%)
  Domvanalimab-related AE: Abdominal pain: 1 ( 1.0%)
  Domvanalimab-related AE: Adrenal insufficiency: 1 ( 1.0%)
  Domvanalimab-related AE: Anaemia: 1 ( 1.0%)
  Domvanalimab-related AE: Any AEs: 50 (50.5%)
  Domvanalimab-related AE: Arthralgia: 4 (4.0%)
  Domvanalimab-related AE: Arthritis: 1 ( 1.0%)
  Domvanalimab-related AE: Aspartate aminotransferase increased: 1 ( 1.0%)
  Domvanalimab-related AE: Asthenia: 1 ( 1.0%)
  Domvanalimab-related AE: Back pain: 2 ( 2.0%)
  Domvanalimab-related AE: Constipation: 2 ( 2.0%)
  Domvanalimab-related AE: Cough: 1 ( 1.0%)
  Domvanalimab-related AE: Decreased appetite: 3 (3.0%)
  Domvanalimab-related AE: Delirium: 1 ( 1.0%)
  Domvanalimab-related AE: Diarrhoea: 5 (5.1%)
  Domvanalimab-related AE: Dry eye: 1 ( 1.0%)
  Domvanalimab-related AE: Dry mouth: 1 ( 1.0%)
  Domvanalimab-related AE: Dyspnoea exertional: 1 ( 1.0%)
  Domvanalimab-related AE: Fatigue: 6 (6.1%)
  Domvanalimab-related AE: Flank pain: 1 ( 1.0%)
  Domvanalimab-related AE: Generalised oedema: 1 ( 1.0%)
  Domvanalimab-related AE: Headache: 4 (4.0%)
  Domvanalimab-related AE: Hot flush: 1 ( 1.0%)
  Domvanalimab-related AE: Hyperglycaemia: 1 ( 1.0%)
  Domvanalimab-related AE: Hyperkalaemia: 1 ( 1.0%)
  Domvanalimab-related AE: Hyperthyroidism: 3 (3.0%)
  Domvanalimab-related AE: Hypokalaemia: 1 ( 1.0%)
  Domvanalimab-related AE: Hypothyroidism: 4 (4.0%)
  Domvanalimab-related AE: Immune-mediated hepatitis: 2 ( 2.0%)
  Domvanalimab-related AE: Influenza like illness: 1 ( 1.0%)
  Domvanalimab-related AE: Infusion related reaction: 2 ( 2.0%)
  Domvanalimab-related AE: Infusion site pain: 1 ( 1.0%)
  Domvanalimab-related AE: Liver function test increased: 1 ( 1.0%)
  Domvanalimab-related AE: Lymphopenia: 1 ( 1.0%)
  Domvanalimab-related AE: Malaise: 2 ( 2.0%)
  Domvanalimab-related AE: Muscle spasms: 1 ( 1.0%)
  Domvanalimab-related AE: Musculoskeletal chest pain: 1 ( 1.0%)
  Domvanalimab-related AE: Myalgia: 1 ( 1.0%)
  Domvanalimab-related AE: Nail disorder: 1 ( 1.0%)
  Domvanalimab-related AE: Nasal mucosal disorder: 1 ( 1.0%)
  Domvanalimab-related AE: Nausea: 6 (6.1%)
  Domvanalimab-related AE: Oral pain: 1 ( 1.0%)
  Domvanalimab-related AE: Pain: 2 ( 2.0%)
  Domvanalimab-related AE: Pancreatitis: 1 ( 1.0%)
  Domvanalimab-related AE: Paraesthesia: 1 ( 1.0%)
  Domvanalimab-related AE: Peripheral sensory neuropathy: 1 ( 1.0%)
  Domvanalimab-related AE: Pneumonitis: 2 ( 2.0%)
  Domvanalimab-related AE: Pruritus: 9 (9.1%)
  Domvanalimab-related AE: Pruritus generalised: 1 ( 1.0%)
  Domvanalimab-related AE: Pulmonary pain: 1 ( 1.0%)
  Domvanalimab-related AE: Pyrexia: 5 (5.1%)
  Domvanalimab-related AE: Rash: 4 (4.0%)
  Domvanalimab-related AE: Rash maculo-papular: 6 (6.1%)
  Domvanalimab-related AE: Rash pruritic: 1 ( 1.0%)
  Domvanalimab-related AE: Rhinorrhoea: 1 ( 1.0%)
  Domvanalimab-related AE: Transaminases increased: 1 ( 1.0%)
  Domvanalimab-related AE: Tumour flare: 3 (3.0%)
  Domvanalimab-related AE: Tumour pain: 1 ( 1.0%)
  Domvanalimab-related AE: Vomiting: 1 ( 1.0%)
Clinical data to date
  tolerability in cancer patients: well tolerated
